Our source for the protein stability index values is the supplement of paper PMC10567573.

The nature of the series: protein stability index of a GFP-peptide fusion (GPS, HEK-293T) (PSI 1-6); higher = more stable. Conditions: c terminus: a fixed tail appended.

± gives the standard deviation.
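Note: 24-mer peptide tiles fused after GFP, lentivirally expressed, FACS-sorted into six equal bins by GFP/DsRed ratio, decoded by Illumina sequencing, PSI is the read-weighted mean bin number.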

Take PNIPKAKSLDGVTNDRTASQGQWG [DHCR7]: the protein stability index is, setting by setting: (treatment: DMSO) 4.65 ± 0.29; (treatment: MLN4924 1 uM, 8 h) 4.84 ± 0.29.

PNIVVAIAGNKCDLIDVREVMERD [RAB22A]: the protein stability index runs as follows: (treatment: DMSO) 3.68 ± 0.14; (treatment: MLN4924 1 uM, 8 h) 3.68 ± 0.25.

Take PNKGLLSDSMTDVPVDTGVAARTP [TPD52L2]: the protein stability index amounted to 4.9 ± 0.17 (treatment: DMSO) and 4.93 ± 0.16 (treatment: MLN4924 1 uM, 8 h).

On to PPLREIILGPSSAYTQTQFHNLRN [NFE2L1], for which the protein stability index by setting is: (treatment: DMSO) 2.47 ± 0.15; (treatment: MLN4924 1 uM, 8 h) 2.65 ± 0.4.

With PQKTYSVKVLAFTSIGDGPLSSDI [PTPRD], the protein stability index reads like this: (treatment: DMSO) 2.17 ± 0.29; (treatment: MLN4924 1 uM, 8 h) 1.89 ± 0.3.

Regarding PQTRSGPECGLAKKPPEESTCFER [ADAMTSL2], the protein stability index by setting is: (treatment: DMSO) 5.05 ± 0.22; (treatment: MLN4924 1 uM, 8 h) 5.08 ± 0.33.

Consider PQTVGVGRARFTTYEVRMRTNLPI [SNX12], for which the protein stability index was determined as 2.61 ± 0.22 (treatment: DMSO) and 2.6 ± 0.34 (treatment: MLN4924 1 uM, 8 h).

Take PRNSDMKNQGEENGFPDSTGDPLP [EDARADD]: the protein stability index is 5.53 ± 0.26 (treatment: DMSO) and 5.36 ± 0.13 (treatment: MLN4924 1 uM, 8 h).

Consider PRQVSYTPQHHEKQYAMQRPNDDS [IQUB], for which the protein stability index runs as follows: (treatment: DMSO) 4.78 ± 0.22; (treatment: MLN4924 1 uM, 8 h) 4.77 ± 0.12.

With PRTNQWSPVVAMTSRRSGVGLAVV [KLHL20], the protein stability index runs as follows: (treatment: DMSO) 2.47 ± 0.51; (treatment: MLN4924 1 uM, 8 h) 2.47 ± 0.33.

As to PSEPSAPLPAGVPPLEDFEVLDGV [FKBP8], the protein stability index reads like this: (treatment: DMSO) 5.49 ± 0.18; (treatment: MLN4924 1 uM, 8 h) 5.53 ± 0.11.

As to PSPMPTHRSYLGPGSTSPLETSGN [SLC6A17], the protein stability index turned out to be 4.13 ± 0.29 (treatment: DMSO) and 4.47 ± 0.26 (treatment: MLN4924 1 uM, 8 h).

Take PSRQYATLDVYNPFETREPPPAYE [SCAMP3]: the protein stability index by setting is: (treatment: DMSO) 3.95 ± 0.27; (treatment: MLN4924 1 uM, 8 h) 4.14 ± 0.21.

As for PSTVGAEAQEEFLRVLGSMCQRLR [DFFB], the protein stability index by setting is: (treatment: DMSO) 2.28 ± 0.34; (treatment: MLN4924 1 uM, 8 h) 2.2 ± 0.32.

Regarding PTYGRSFTLASSSDTRVGAPATGS [CHIT1], the protein stability index reads like this: (treatment: DMSO) 4.29 ± 0.25; (treatment: MLN4924 1 uM, 8 h) 4.12 ± 0.36.

Regarding PVKSYDYLLKFLLVGDSDVGKGEI [RAB40C], the protein stability index reads like this: (treatment: DMSO) 2.06 ± 0.19; (treatment: MLN4924 1 uM, 8 h) 2 ± 0.24.

In the case of PVKTLPFSPSQFLNFWNKQDTLEL [MYBL2], the protein stability index amounted to 2.36 ± 0.37 (treatment: DMSO) and 2.43 ± 0.31 (treatment: MLN4924 1 uM, 8 h).

Turning to PYKCPECGKSFSRSSHLVIHERTH [ZNF263], the protein stability index was 3.23 ± 0.54 (treatment: DMSO) and 3.28 ± 0.64 (treatment: MLN4924 1 uM, 8 h).

As to QAGAARLEEELRQLKEEMARHLRE [PRPH], the protein stability index amounted to 4.15 ± 0.37 (treatment: DMSO) and 4.63 ± 0.3 (treatment: MLN4924 1 uM, 8 h).

For the sequence QALQKEKETLAVNYEKEEEFLTNE [CCDC6], the protein stability index was 5.39 ± 0.15 (treatment: DMSO) and 5.3 ± 0.24 (treatment: MLN4924 1 uM, 8 h).

On to QAPISAPEYTYGISNIDTTIEGTS [MFF], for which the protein stability index amounted to 4.67 ± 0.42 (treatment: DMSO) and 4.55 ± 0.21 (treatment: MLN4924 1 uM, 8 h).

For QAQMIHPKPADFRNPGPGRHRLIT [INTS4], the protein stability index is, setting by setting: (treatment: DMSO) 3.94 ± 0.26; (treatment: MLN4924 1 uM, 8 h) 3.92 ± 0.24.

Consider QASPYHPGSCGAGAPSPGSSDVST [ELF3], for which the protein stability index runs as follows: (treatment: DMSO) 4.57 ± 0.16; (treatment: MLN4924 1 uM, 8 h) 4.52 ± 0.43.

As for QEWSFLPSITRKRRYVASVSLHDR [KLHL12], the protein stability index is 2.41 ± 0.11 (treatment: DMSO) and 2.51 ± 0.33 (treatment: MLN4924 1 uM, 8 h).

In the case of QFANLVLHQTVERIHVGKKYGDIP [LSM1], the protein stability index turned out to be 2.13 ± 0.22 (treatment: DMSO) and 2.09 ± 0.23 (treatment: MLN4924 1 uM, 8 h).

Sequence QGHPQTGCECEDGPDGQEMDPPNP [GAGE1] came in with a protein stability index (treatment: DMSO) of 5.39 ± 0.33 and a protein stability index (treatment: MLN4924 1 uM, 8 h) of 5.67 ± 0.14.

As to QHYQQYMQQLYQVQLAQQQAALQK [ACBD3], the protein stability index by setting is: (treatment: DMSO) 2.23 ± 0.23; (treatment: MLN4924 1 uM, 8 h) 2.21 ± 0.23.

With QKEQQERLREAAALGDIREVQKLV [ANKRD40], the protein stability index by setting is: (treatment: DMSO) 4.67 ± 0.25; (treatment: MLN4924 1 uM, 8 h) 4.74 ± 0.25.

As for QKILCSKSENARLVVQIDNAKLAA [KRT33B], the protein stability index stood at 3.21 ± 0.27 (treatment: DMSO) and 3.33 ± 0.26 (treatment: MLN4924 1 uM, 8 h).

Take QKKIESYLHNHFIGEGMTKYDYLM [TENT5D]: the protein stability index runs as follows: (treatment: DMSO) 2.13 ± 0.45; (treatment: MLN4924 1 uM, 8 h) 2.18 ± 0.27.

For QKRETLSPLCLIPMVTSPREEQQL [KCTD13], the protein stability index stood at 3.98 ± 0.18 (treatment: DMSO) and 4.08 ± 0.15 (treatment: MLN4924 1 uM, 8 h).

For the sequence QLGLGRGASTFKEEPQTVPEARSR [JUNB], the protein stability index by setting is: (treatment: DMSO) 5.04 ± 0.1; (treatment: MLN4924 1 uM, 8 h) 5.22 ± 0.26.

For the sequence QLLWREFFYTAATNNPRFDKMEGN [CRY1], the protein stability index reads like this: (treatment: DMSO) 2.02 ± 0.23; (treatment: MLN4924 1 uM, 8 h) 2 ± 0.38.

With QLQPTFTPMRVALAGTFHYYSCER [NSDHL], the protein stability index reads like this: (treatment: DMSO) 2.18 ± 0.24; (treatment: MLN4924 1 uM, 8 h) 2.26 ± 0.044.

With QMNLLQKYSLLKLTALLEKYTPSN [DLC1], the protein stability index by setting is: (treatment: DMSO) 2.48 ± 0.55; (treatment: MLN4924 1 uM, 8 h) 2.41 ± 0.49.

Take QNMMNHCNLWDSHHPEVPQRILRI [HDAC6]: the protein stability index is 2.2 ± 0.24 (treatment: DMSO) and 2.15 ± 0.083 (treatment: MLN4924 1 uM, 8 h).
